Experimental data published in US20210338838A1 (UNIVERSITY OF UTAH RESEARCH FOUNDATION, published 2021).

B1: protective CFHT-I62-Y402 (truncated complement factor H ending in SFTL) (other)
chain: EDCNELPPRRNTEILTGSWSDQTYPEGTQAIYKCRPGYRSLGNIIMVCRKGEWVALNPLRKCQKRPCGHPGDTPFGTFTLTGGNVFEYGVKAVYTCNEGYQLLGEINYRECDTDGWTNDIPICEVVKCLPVTAPENGKIVSSAMEPDREYHFGQAVRFVCNSGYKIEGDEEMHCSDDGFWSKEKPKCVEISCKSPDVINGSPISQKIIYKENERFQYKCNMGYEYSERGDAVCTESGWRPLPSCEEKSCDNPYIPNGDYSPLRIKHRTGDEITYQCRNGFYPATRGNTAKCTSTGWIPAPRCTLKPCDYPDIKHGGLYHENMRRPYFPVAVGKYYSYYCDEHFETPSGSYWDHIHCTQDGWSPAVPCLRKCYFPYLENGYNQNYGRKFVQGKSIDVACHPGYALPKAQTTVTCMENGWSPTPRCIRVSFTL
notes: In the Western blot it was expressed in RPE1 cells from pCTM134 and from eCFH/T v4.1; also called CFHT-Protection; native protective CFHT
B2: monomeric C-reactive protein (CRP) (other, UniProt P02741 19-224, looked up)
chain: QTDMSRKAFVFPKESDTSYVSLKAPLTKPLKAFTVCLHFYTELSSTRGYSIFSYATKRQDNEILIFWSKDIGYSFTVGGSEILFEVPEVTVAPVHICTSWESASGIVEFWVDGKPRVRKSLKKGYTVGAEASIILGQEQDSFGGNFEGSQSLVGDIGNVNMWDFVLSPDEINTIYLGGPFSPNVLNWRALKYEVQGEVFTKPQLWP
B3: protective CFH-I62-Y402-E936 (full-length complement factor H) (other)
chain: EDCNELPPRRNTEILTGSWSDQTYPEGTQAIYKCRPGYRSLGNIIMVCRKGEWVALNPLRKCQKRPCGHPGDTPFGTFTLTGGNVFEYGVKAVYTCNEGYQLLGEINYRECDTDGWTNDIPICEVVKCLPVTAPENGKIVSSAMEPDREYHFGQAVRFVCNSGYKIEGDEEMHCSDDGFWSKEKPKCVEISCKSPDVINGSPISQKIIYKENERFQYKCNMGYEYSERGDAVCTESGWRPLPSCEEKSCDNPYIPNGDYSPLRIKHRTGDEITYQCRNGFYPATRGNTAKCTSTGWIPAPRCTLKPCDYPDIKHGGLYHENMRRPYFPVAVGKYYSYYCDEHFETPSGSYWDHIHCTQDGWSPAVPCLRKCYFPYLENGYNQNYGRKFVQGKSIDVACHPGYALPKAQTTVTCMENGWSPTPRCIRVKTCSKSSIDIENGFISESQYTYALKEKAKYQCKLGYVTADGETSGSITCGKDGWSAQPTCIKSCDIPVFMNARTKNDFTWFKLNDTLDYECHDGYESNTGSTTGSIVCGYNGWSDLPICYERECELPKIDVHLVPDRKKDQYKVGEVLKFSCKPGFTIVGPNSVQCYHFGLSPDLPICKEQVQSCGPPPELLNGNVKEKTKEEYGHSEVVEYYCNPRFLMKGPNKIQCVDGEWTTLPVCIVEESTCGDIPELEHGWAQLSSPPYYYGDSVEFNCSESFTMIGHRSITCIHGVWTQLPQCVAIDKLKKCKSSNLIILEEHLKNKKEFDHNSNIRYRCRGKEGWIHTVCINGRWDPEVNCSMAQIQLCPPPPQIPNSHNMTTTLNYRDGEKVSVLCQENYLIQEGEEITCKDGRWQSIPLCVEKIPCSQPPQIEHGTINSSRSSQESYAHGTKLSYTCEGGFRISEENETTCYMGKWSSPPQCEGLPCKSPPEISHGVVAHMSDSYQYGEEVTYKCFEGFGIDGPAIAKCLGEKWSHPPSCIKTDCLSLPSFENAIPMGEKKDVYKAGEQVTYTCATYYKMDGASNVTCINSRWTGRPTCRDTSCVNPPTVQNAYIVSRQMSKYPSGERVRYQCRSPYEMFGDEEVMCLNGNWTEPPQCKDSTGKCGPPPPIDNGDITSFPLSVYAPASSVEYQCQNLYQLEGNKRITCRNGQWSEPPKCLHPCVISREIMENYNIALRWTAKQKLYSRTGESVEFVCKRGYRLSSRSHTLRTTCWDGKLEYPTCAKR
notes: In the Western blot it was expressed in RPE1 cells from plasmid pCTM133; also called CFH-Protection

Tests used:
[1] = target: B2; test: plate-based CRP binding assay, against protective CFH
[2] = target: B2; test: relative CRP-binding assay, detection antibody AbCam OX-24 (#Ab112197)
[3] = target: T1, MDA-modified LDL particles; test: relative MDA-binding assay, detection antibody AbCam OX-24 (#Ab112197)
T1 construct: Not a plain protein; also called MDA-LDL; MDA adducts

[4] = target: B2; test: rank of binding affinity among six proteins, plate-based binding assays
[5] = target: T1, MDA-modified LDL particles; test: as above
[6] = target: T1, MDA-modified LDL particles; test: plate-based binding assay, His-tagged recombinant protein from HEK293 cells
[7] = target: B2; test: relative CRP-binding assay, percent of CFH-Risk, detection antibody AbCam OX-24 (#Ab112197)
[8] = target: T1, MDA-modified LDL particles; test: relative MDA-binding assay, percent of CFH-Risk, detection antibody AbCam OX-24 (#Ab112197)
[9] = target: B3; test: plate-based binding assay, His-tagged recombinant protein from HEK293 cells
[10] = target: B1; test: as above
[11] = target: T2, eCFHT-SK (engineered truncated CFH, I62-Y402, ending in SKSFTL) (human, UniProt P08603 19-445); test: as above
T2 construct: Non-natural variant of human CFHT with SK inserted before the C-terminal SFTL; In the Western blot it was expressed from eCFH/T v4.2 in RPE1 cells; also called protective eCFHT-SK; truncated product of eCFH/T v4.2

[12] = target: T3, eCFHT-SE (engineered truncated CFH, I62-Y402, ending in SESFTL) (human, UniProt P08603 19-445); test: as above
T3 construct: The chain is built from the first 445 residues shared by CFH and CFHT, less the 18-residue signal peptide, plus the printed C-terminal SESFTL; His-tagged and purified from HEK293 cells; also called protective eCFHT-SE; truncated product of eCFH/T v4.3
T3 sequence (P08603 other isoform, or with tags, fused parts or gaps): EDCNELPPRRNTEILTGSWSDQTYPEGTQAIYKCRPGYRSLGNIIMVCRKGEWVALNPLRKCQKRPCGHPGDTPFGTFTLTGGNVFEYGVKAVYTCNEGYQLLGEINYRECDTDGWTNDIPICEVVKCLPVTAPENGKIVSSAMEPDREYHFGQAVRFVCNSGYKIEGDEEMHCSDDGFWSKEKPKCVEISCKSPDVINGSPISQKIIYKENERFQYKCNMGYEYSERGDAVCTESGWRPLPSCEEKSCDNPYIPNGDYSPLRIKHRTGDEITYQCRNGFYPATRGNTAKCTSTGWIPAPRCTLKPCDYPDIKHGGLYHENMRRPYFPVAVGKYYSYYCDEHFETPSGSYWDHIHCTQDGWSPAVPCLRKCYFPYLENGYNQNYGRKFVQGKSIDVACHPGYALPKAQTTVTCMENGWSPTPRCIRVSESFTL

T2 sequence (P08603 other isoform, or with tags, fused parts or gaps): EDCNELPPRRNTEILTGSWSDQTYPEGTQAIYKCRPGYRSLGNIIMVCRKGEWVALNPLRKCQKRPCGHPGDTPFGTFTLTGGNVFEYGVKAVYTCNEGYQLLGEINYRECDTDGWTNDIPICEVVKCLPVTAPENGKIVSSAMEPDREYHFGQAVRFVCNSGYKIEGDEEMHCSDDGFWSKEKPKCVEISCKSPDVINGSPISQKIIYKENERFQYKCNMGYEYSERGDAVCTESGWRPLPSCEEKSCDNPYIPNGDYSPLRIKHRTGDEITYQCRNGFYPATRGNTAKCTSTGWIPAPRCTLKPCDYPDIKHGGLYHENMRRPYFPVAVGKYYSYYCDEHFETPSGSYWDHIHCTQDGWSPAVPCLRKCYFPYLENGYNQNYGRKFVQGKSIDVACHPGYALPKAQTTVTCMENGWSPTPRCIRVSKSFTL

| fold better binding affinity than CFH [1] [fold] | Binding Potential [2] | Binding Potential [3] | Binding Affinity Rank (1 best to 6 worst) [4] [rank] | Binding Affinity Rank (1 best to 6 worst) [5] [rank] | Kd [6] [nM] | % FH-Risk [7] [%] | % FH-Risk [8] [%] | Kd [9] [nM] | Kd [10] [nM] | Kd [11] [nM] | Kd [12] [nM] | Binder |
| --- | --- | --- | --- | --- | --- | --- | --- | --- | --- | --- | --- | --- |
| ~10 | 87 | 32 | 2 | 1 | 219 | 5900 | 107 |  |  |  |  | B1 |
|  |  |  |  |  |  |  |  | 127 | 14.3 | 13.7 | 25.3 | B2 |
|  | 10 | 75 | 4 | 2 | 222 | 656 | 251 |  |  |  |  | B3 |
